Experimental data taken from patent EP4467153A1, “CONSTRAINED PEPTIDE INHIBITORS OF LRRK2-FADD INTERACTIONS” (University of Georgia Research Foundation, Inc., priority 2023, dated 2024).
Positions of bridges follow the written chain, without caps; N, C: chain ends. Non-standard residues stand in square brackets, D forms with d. Primed or numbered codes have the meaning given here. FAM = 5(6)-carboxyfluorescein label; S5 = C=CCCC[C@](C)(N)C(=O)O; PEG3′ = PEG3 spacer

Target: T1, LRRK2-FADD PPI (Flag G2019S-LRRK2 and V5-FADD) (Homo sapiens, UniProt Q5S007, G2019S)
T1 construct: expressed in transfected cells; host or cells: HEK293T
T1 sequence (Q5S007 whole entry G2019S): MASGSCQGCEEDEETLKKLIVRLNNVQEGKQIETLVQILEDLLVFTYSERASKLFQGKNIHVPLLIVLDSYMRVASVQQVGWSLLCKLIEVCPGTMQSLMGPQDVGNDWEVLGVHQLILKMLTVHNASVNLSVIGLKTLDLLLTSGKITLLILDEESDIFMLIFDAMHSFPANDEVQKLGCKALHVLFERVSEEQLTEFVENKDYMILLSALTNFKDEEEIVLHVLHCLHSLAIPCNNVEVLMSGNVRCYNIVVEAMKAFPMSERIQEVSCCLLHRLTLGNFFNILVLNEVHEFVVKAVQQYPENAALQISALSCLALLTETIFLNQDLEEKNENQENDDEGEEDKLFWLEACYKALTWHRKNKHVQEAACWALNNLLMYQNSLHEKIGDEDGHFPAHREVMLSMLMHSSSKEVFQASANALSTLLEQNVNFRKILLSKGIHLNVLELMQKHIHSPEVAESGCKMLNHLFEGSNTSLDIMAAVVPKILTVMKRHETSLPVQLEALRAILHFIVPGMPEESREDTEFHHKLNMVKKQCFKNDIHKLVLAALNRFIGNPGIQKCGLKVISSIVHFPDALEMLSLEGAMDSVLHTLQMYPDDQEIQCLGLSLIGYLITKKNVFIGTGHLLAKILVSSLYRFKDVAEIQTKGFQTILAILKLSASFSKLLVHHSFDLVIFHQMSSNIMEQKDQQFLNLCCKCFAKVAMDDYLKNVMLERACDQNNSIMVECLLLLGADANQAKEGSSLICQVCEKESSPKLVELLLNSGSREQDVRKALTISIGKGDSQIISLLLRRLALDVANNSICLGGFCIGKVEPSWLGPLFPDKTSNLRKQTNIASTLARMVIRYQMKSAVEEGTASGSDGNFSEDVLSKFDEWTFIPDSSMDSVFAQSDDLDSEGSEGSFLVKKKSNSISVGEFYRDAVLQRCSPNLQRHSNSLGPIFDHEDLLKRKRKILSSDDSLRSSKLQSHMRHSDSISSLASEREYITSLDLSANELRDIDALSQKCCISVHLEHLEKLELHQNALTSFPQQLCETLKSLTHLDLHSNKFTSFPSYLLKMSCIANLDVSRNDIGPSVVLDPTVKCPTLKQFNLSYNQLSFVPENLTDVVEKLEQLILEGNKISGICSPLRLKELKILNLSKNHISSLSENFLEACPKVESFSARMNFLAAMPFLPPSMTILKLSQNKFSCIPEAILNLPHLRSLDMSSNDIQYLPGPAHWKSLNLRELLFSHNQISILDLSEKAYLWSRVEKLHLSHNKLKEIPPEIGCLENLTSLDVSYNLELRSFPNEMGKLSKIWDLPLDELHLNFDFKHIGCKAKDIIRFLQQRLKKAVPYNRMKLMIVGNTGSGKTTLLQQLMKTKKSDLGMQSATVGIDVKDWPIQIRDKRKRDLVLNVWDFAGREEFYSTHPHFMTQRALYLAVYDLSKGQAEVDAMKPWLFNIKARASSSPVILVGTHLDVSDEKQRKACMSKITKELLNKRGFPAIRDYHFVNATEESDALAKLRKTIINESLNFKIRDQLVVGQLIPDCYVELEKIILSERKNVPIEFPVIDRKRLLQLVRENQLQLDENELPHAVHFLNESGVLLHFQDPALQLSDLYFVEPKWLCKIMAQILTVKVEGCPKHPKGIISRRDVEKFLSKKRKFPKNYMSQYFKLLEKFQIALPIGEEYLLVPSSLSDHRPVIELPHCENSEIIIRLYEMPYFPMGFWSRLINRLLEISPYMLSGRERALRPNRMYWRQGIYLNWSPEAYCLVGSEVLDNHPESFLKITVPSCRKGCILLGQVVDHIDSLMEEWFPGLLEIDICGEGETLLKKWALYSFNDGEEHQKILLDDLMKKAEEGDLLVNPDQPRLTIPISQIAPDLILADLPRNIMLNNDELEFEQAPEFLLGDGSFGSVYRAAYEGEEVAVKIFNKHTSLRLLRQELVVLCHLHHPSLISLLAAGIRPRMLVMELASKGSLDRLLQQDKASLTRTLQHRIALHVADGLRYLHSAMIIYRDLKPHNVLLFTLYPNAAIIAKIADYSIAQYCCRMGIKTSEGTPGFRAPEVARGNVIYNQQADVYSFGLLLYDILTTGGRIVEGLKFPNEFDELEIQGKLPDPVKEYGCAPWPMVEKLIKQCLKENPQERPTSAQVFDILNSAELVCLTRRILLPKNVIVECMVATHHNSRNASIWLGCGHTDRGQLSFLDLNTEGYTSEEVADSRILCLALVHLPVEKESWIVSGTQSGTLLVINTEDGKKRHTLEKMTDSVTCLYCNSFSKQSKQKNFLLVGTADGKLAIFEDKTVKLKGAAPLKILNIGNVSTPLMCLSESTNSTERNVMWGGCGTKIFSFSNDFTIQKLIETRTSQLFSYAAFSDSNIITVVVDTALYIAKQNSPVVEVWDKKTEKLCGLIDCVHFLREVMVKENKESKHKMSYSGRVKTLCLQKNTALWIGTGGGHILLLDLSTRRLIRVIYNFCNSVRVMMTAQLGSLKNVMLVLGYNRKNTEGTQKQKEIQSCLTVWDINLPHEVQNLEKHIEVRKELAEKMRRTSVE
Experiment: Co-immunoprecipitation of LRRK2-FADD interaction in transfected HEK293T cells
Assay type: cell-based
Conditions: 10 µM, 48 hr, normalized to immunoprecipitated Flag-LRRK2
Procedure: It was then assessed whether this peptide library (FARM1-FARM5) could disrupt the interaction between over-expressed Flag G2019S-LRRK2 and V5-FADD by co-immunoprecipitation. Flag-LRRK2 was purified on anti-Flag resin and the eluate as well as the protein extract (input) separated by SDS-PAGE, with the membranes probed for V5 (FADD) and Flag (LRRK2). The transfected cells were treated with the indicated peptide (10 µM) for a total of 48 hr prior to collection. […] To minimize the use of primary mouse cortical neuron cultures, FARMS was used in subsequent experiments to examine the potential neuroprotective effects of LRRK2-FADD disruption.
Assessment of LRRK2-FADD interaction. Co-immunoprecipitation was undertaken to determine the effects of the stapled peptides on the LRRK2-FADD PPI, as previously described. Briefly, 10cm plates of HEK293T cells transiently expressing Flag-WT or mutant LRRK2 and V5-FADD (at a 3:1 ratio), and treated with different concentrations of FARM peptides (as indicated in the Figure legends), were washed in PBS and lysed in co-IP buffer (20mM HEPES, pH7.4; 150 mM NaCl; 0.1% NP40; 2 mM EGTA; 2 mM MgCl2; 10% glycerol, pH 7.2; protease and phosphatase cocktail [Agilent Technologies]) for 30 min on ice followed by 15 strokes with a Dounce glass homogenizer, and centrifugation at 13000 rpm for 15 min to remove cellular debris. Following pre-clearing with IgG-coupled beads, 40 µl of washed anti-Flag resin (Sigma-Aldrich) per mg of protein was added and the samples incubated under rotation overnight at 4°C. The following morning, the beads were centrifuged and washed a total of 5X with coIP buffer, before elution in 2X SDS sample buffer at 95°C for 10 min. The eluate (and input) was separated by SDS-PAGE and membranes probed with anti-Flag (LRRK2) and V5 (FADD).

Substance | amount of FADD that co-purified with G2019S-LRRK2 (LRRK2-FADD interaction)
FARM2: FAM-labeled hydrocarbon-stapled FADD Armadillo domain peptide; mass fits SEQ ID NO. 3 KVADLXQEVXQARDLQNRSK ({FAM-PEG3′}-KVADL[S5]QEV[S5]QARDLQNRSK-NH2; staple 6-10; not fully specified) [FAM-labeled hydrocarbon-stapled FADD Armadillo domain peptide; 3 KVADLXQEVX…] | to a lesser extent
FARM3: FAM-labeled hydrocarbon-stapled FADD Armadillo domain peptide; mass fits SEQ ID NO. 4 KVADLVQEXQQAXDLQNRSK ({FAM-PEG3′}-KVADLVQE[S5]QQA[S5]DLQNRSK-NH2; staple 9-13; not fully specified) [FAM-labeled hydrocarbon-stapled FADD Armadillo domain peptide; 4 KVADLVQEXQQAXDLQNRSK] | reduced the interaction between LRRK2 and FADD
